For this assay, the target named is HLA class I on primary cervical cancer cells CA1 and CA2 (haplotype HLA A1) (human). Briefly: cell-based or functional assay.

Take “Mab specific for monomorphic HLA class I W6/32 (antibody)”: the percent killing of CA1 target, AAV/E6/Neo (purified virus) plus anti-class I antibodies (36.1+/-1.4% without antibody) is 0.4%.

The values above are taken from patent US20060029943A1.
